Assay [1] deals with T1, MRS-AIMP3 complex (human cytosolic methionyl-tRNA synthetase co-expressed with AIMP3) (human, UniProt P56192 1-900; O43324 1-174).
T1 construct: human cytosolic methionyl-tRNA synthetase (MRS), gene cloned from the cDNA of HEK293 cells; Only MRS carries the Flag tag; It is the bait of the anti-Flag pull-down of the assembled MSC; source: co-expressed from a modified pETDuet-1, purified (Ni-NTA, gel filtration); not shown: Flag, C-terminal, kept
T1 sequence (looked up) 1: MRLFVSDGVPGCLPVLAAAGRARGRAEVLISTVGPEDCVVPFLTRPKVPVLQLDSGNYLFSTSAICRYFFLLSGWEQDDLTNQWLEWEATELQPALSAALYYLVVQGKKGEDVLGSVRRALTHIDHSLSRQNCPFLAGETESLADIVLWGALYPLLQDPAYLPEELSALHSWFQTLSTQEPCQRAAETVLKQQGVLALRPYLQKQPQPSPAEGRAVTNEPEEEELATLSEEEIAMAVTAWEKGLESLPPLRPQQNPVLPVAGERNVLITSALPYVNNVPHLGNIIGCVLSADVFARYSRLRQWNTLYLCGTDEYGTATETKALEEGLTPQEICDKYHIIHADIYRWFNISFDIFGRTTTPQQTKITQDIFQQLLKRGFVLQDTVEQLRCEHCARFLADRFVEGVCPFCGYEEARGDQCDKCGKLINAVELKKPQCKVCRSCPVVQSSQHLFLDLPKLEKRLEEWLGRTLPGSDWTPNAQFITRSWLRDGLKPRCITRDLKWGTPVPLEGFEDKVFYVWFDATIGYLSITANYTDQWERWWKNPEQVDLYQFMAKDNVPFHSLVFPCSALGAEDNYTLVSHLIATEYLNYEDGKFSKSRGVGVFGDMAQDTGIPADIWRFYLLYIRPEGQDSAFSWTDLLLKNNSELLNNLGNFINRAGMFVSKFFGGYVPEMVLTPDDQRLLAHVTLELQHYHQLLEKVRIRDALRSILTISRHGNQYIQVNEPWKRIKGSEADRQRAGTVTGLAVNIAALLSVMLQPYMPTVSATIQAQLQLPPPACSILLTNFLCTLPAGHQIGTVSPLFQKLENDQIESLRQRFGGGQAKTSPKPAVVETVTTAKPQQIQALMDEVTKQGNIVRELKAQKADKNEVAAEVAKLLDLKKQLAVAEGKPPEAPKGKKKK
T1 sequence (looked up) 2: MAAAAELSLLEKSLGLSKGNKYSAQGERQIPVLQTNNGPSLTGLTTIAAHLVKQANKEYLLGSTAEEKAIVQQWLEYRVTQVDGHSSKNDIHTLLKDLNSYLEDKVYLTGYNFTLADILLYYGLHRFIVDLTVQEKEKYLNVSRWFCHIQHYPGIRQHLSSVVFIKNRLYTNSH
The assay is described as follows: pull-down; in vitro assembly of the MSC as in a2 but lacking IRS; anti-Flag beads on MRS-Flag. The settings on record: both partners purified.

The target in assay [2] is T2, Human cytosolic isoleucyl-tRNA synthetase (human, UniProt P41252 1-1262).
T2 construct: human cytosolic isoleucyl-tRNA synthetase (IRS), gene cloned from the cDNA of HEK293 cells; also called IRS; source: recombinant from a modified pET28b, purified (Ni-NTA, gel filtration)
T2 sequence (looked up): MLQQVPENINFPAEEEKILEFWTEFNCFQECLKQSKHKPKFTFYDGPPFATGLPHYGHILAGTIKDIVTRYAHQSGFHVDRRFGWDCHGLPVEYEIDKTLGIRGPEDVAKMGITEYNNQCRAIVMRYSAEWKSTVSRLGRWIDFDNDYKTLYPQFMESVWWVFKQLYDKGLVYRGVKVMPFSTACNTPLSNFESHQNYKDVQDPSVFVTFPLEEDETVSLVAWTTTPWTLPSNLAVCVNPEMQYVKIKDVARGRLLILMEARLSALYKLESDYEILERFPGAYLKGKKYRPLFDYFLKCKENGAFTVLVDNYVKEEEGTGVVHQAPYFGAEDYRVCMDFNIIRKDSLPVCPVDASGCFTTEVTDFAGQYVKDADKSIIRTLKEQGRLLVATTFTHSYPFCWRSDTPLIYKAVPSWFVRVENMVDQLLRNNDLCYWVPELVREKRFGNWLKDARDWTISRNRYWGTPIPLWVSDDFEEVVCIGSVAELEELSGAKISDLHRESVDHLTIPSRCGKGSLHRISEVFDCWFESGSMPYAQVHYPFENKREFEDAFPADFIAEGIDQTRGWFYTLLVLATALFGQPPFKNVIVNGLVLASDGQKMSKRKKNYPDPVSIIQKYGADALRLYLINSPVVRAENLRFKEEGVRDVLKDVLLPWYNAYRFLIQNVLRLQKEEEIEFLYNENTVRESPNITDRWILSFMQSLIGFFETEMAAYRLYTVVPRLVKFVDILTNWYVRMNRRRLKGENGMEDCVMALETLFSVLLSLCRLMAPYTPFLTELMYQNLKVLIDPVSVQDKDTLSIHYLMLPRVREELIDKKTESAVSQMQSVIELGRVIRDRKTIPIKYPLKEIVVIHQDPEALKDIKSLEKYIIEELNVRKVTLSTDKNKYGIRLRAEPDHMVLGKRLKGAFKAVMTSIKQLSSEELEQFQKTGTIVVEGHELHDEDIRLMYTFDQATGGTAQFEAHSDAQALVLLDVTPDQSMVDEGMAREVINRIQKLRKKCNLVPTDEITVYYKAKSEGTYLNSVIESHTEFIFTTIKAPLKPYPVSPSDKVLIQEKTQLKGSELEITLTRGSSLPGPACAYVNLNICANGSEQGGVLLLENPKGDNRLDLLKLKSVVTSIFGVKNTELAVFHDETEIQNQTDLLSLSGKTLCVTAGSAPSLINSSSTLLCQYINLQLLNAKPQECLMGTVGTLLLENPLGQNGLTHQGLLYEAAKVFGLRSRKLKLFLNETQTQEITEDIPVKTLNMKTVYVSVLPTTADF
Briefly: SEC; purified hcLRS (or hcLRS_d106) incubated with each partner separately for 4 h, then run on gel filtration; protein incubated with buffer as control. The settings on record: both partners purified. (In general: Size exclusion chromatography separates by hydrodynamic size, large species first.)

Consider five molecules from publication PMC7229842, “Molecular basis of the multifaceted functions of human leucyl-tRNA synthetase in protein synthesis and beyond” (Nucleic Acids Research, 2020).

B1: AaRS-interacting multi-functional protein 1 (natural protein, human, UniProt Q12904 1-312, looked up)
chain: MANNDAVLKRLEQKGAEADQIIEYLKQQVSLLKEKAILQATLREEKKLRVENAKLKKEIEELKQELIQAEIQNGVKQIPFPSGTPLHANSMVSENVIQSTAVTTVSSGTKEQIKGGTGDEKKAKEKIEKKGEKKEKKQQSIAGSADSKPIDVSRLDLRIGCIITARKHPDADSLYVEEVDVGEIAPRTVVSGLVNHVPLEQMQNRMVILLCNLKPAKMRGVLSQAMVMCASSPEKIEILAPPNGSVPGDRITFDAFPGEPDKELNPKKKIWEQIQPDLHTNDECVATYKGVPFEVKGKGVCRAQTMSNSGIK
notes: human AIMP1, gene cloned from the cDNA of HEK293 cells; also called AIMP1; source: recombinant from a modified pET28b, purified (Ni-NTA, gel filtration)
Regarding B1, in assay [1], the binding result is on record as “binds”.

B2: Human cytosolic aspartyl-tRNA synthetase (enzyme, UniProt P14868 1-501, looked up)
chain: MPSASASRKSQEKPREIMDAAEDYAKERYGISSMIQSQEKPDRVLVRVRDLTIQKADEVVWVRARVHTSRAKGKQCFLVLRQQQFNVQALVAVGDHASKQMVKFAANINKESIVDVEGVVRKVNQKIGSCTQQDVELHVQKIYVISLAEPRLPLQLDDAVRPEAEGEEEGRATVNQDTRLDNRVIDLRTSTSQAVFRLQSGICHLFRETLINKGFVEIQTPKIISAASEGGANVFTVSYFKNNAYLAQSPQLYKQMCICADFEKVFSIGPVFRAEDSNTHRHLTEFVGLDIEMAFNYHYHEVMEEIADTMVQIFKGLQERFQTEIQTVNKQFPCEPFKFLEPTLRLEYCEALAMLREAGVEMGDEDDLSTPNEKLLGHLVKEKYDTDFYILDKYPLAVRPFYTMPDPRNPKQSNSYDMFMRGEEILSGAQRIHDPQLLTERALHHGIDLEKIKAYIDSFRFGAPPHAGGGIGLERVTMLFLGLHNVRQTSMFPRDPKRLTP
notes: human cytosolic DRS, gene cloned from the cDNA of HEK293 cells; also called DRS; source: recombinant from a modified pET28b, purified (Ni-NTA, gel filtration)
As for B2, the binding result in assay [1] is recorded as “binds”.

B3: Human cytosolic leucyl-tRNA synthetase, full length (enzyme)
chain: not shown
notes: human cytosolic leucyl-tRNA synthetase, UniProt Q9P2J5, 1176 residues; also called hcLRS; FL-hcLRS; source: recombinant from pET16b-hcLRS, purified (Ni-NTA, gel filtration)
On to B3, for which, in assay [2], the binding result is given as “binds”.

B4: Human cytosolic arginyl-tRNA synthetase (enzyme, UniProt P54136 1-660, looked up)
chain: MDVLVSECSARLLQQEEEIKSLTAEIDRLKNCGCLGASPNLEQLQEENLKLKYRLNILRKSLQAERNKPTKNMINIISRLQEVFGHAIKAAYPDLENPPLLVTPSQQAKFGDYQCNSAMGISQMLKTKEQKVNPREIAENITKHLPDNECIEKVEIAGPGFINVHLRKDFVSEQLTSLLVNGVQLPALGENKKVIVDFSSPNIAKEMHVGHLRSTIIGESISRLFEFAGYDVLRLNHVGDWGTQFGMLIAHLQDKFPDYLTVSPPIGDLQVFYKESKKRFDTEEEFKKRAYQCVVLLQGKNPDITKAWKLICDVSRQELNKIYDALDVSLIERGESFYQDRMNDIVKEFEDRGFVQVDDGRKIVFVPGCSIPLTIVKSDGGYTYDTSDLAAIKQRLFEEKADMIIYVVDNGQSVHFQTIFAAAQMIGWYDPKVTRVFHAGFGVVLGEDKKKFKTRSGETVRLMDLLGEGLKRSMDKLKEKERDKVLTAEELNAAQTSVAYGCIKYADLSHNRLNDYIFSFDKMLDDRGNTAAYLLYAFTRIRSIARLANIDEEMLQKAARETKILLDHEKEWKLGRCILRFPEILQKILDDLFLHTLCDYIYELATAFTEFYDSCYCVEKDRQTGKILKVNMWRMLLCEAVAAVMAKGFDILGIKPVQRM
notes: human cytosolic RRS, gene cloned from the cDNA of HEK293 cells; also called RRS; source: recombinant from a modified pET28b, purified (Ni-NTA, gel filtration)
B4: in assay [1], the binding result is given as “binds”.

B5: Human cytosolic glutaminyl-tRNA synthetase (enzyme, UniProt P47897 1-775, looked up)
chain: MAALDSLSLFTSLGLSEQKARETLKNSALSAQLREAATQAQQTLGSTIDKATGILLYGLASRLRDTRRLSFLVSYIASKKIHTEPQLSAALEYVRSHPLDPIDTVDFERECGVGVIVTPEQIEEAVEAAINRHRPQLLVERYHFNMGLLMGEARAVLKWADGKMIKNEVDMQVLHLLGPKLEADLEKKFKVAKARLEETDRRTAKDVVENGETADQTLSLMEQLRGEALKFHKPGENYKTPGYVVTPHTMNLLKQHLEITGGQVRTRFPPEPNGILHIGHAKAINFNFGYAKANNGICFLRFDDTNPEKEEAKFFTAICDMVAWLGYTPYKVTYASDYFDQLYAWAVELIRRGLAYVCHQRGEELKGHNTLPSPWRDRPMEESLLLFEAMRKGKFSEGEATLRMKLVMEDGKMDPVAYRVKYTPHHRTGDKWCIYPTYDYTHCLCDSIEHITHSLCTKEFQARRSSYFWLCNALDVYCPVQWEYGRLNLHYAVVSKRKILQLVATGAVRDWDDPRLFTLTALRRRGFPPEAINNFCARVGVTVAQTTMEPHLLEACVRDVLNDTAPRAMAVLESLRVIITNFPAAKSLDIQVPNFPADETKGFHQVPFAPIVFIERTDFKEEPEPGFKRLAWGQPVGLRHTGYVIELQHVVKGPSGCVESLEVTCRRADAGEKPKAFIHWVSQPLMCEVRLYERLFQHKNPEDPTEVPGGFLSDLNLASLHVVDAALVDCSVALAKPFDKFQFERLGYFSVDPDSHQGKLVFNRTVTLKEDPGKV
notes: human cytosolic QRS, gene cloned from the cDNA of HEK293 cells; also called QRS; source: recombinant from a modified pET28b, purified (Ni-NTA, gel filtration)
B5: the binding result in assay [1] was “binds”.
